Source: patent US20050054026A1

biological target: 9-fluorenylmethyloxycarbonyl (Fmoc)-glycyl-prolyl-glutamyl-glycyl-isoleucyl-alanyl-glycyl-tryptophanyl-glycine (Gly-Pro-Gln-Gly-Ile-Ala-Gly-Trp-Gly) (Artificial Sequence); conditions: scale: fold

| degradation rate of Fmoc-… per unit weight of enzyme and unit time (first 15 minutes, RP-HPLC) | Substance |
| --- | --- |
| 14.2 | aminopeptidase-1 (enzyme) |
| 38.8 | carboxypeptidase A (enzyme) |
| 26.9 | collagenase (enzyme) |
